A word on the Kd: it is a measure of binding affinity in units of concentration. High values mean lower affinity, low ones higher affinity.

The results in this text go back to doi:10.1101/2025.07.24.666444.

Assay [1] deals with AtPCO4 Y183F (Arabidopsis thaliana).
Assay [2] addresses AtPCO4 Y73R (Arabidopsis thaliana).
For assay [3], the target named is AtPCO4 S107L (Arabidopsis thaliana).
In assay [4] the target is AtPCO4 V105G (Arabidopsis thaliana).
Assay [5] addresses AtPCO4 C173A (Arabidopsis thaliana). Briefly: other fluorescence titration.
The target of assay [6] is AtPCO4 D177E (Arabidopsis thaliana). Briefly: other fluorescence titration.
Assay [7] deals with AtPCO4 Y183F (Arabidopsis thaliana). Put plainly: other fluorescence titration.
In assay [8] the target is AtPCO4 Y73R (Arabidopsis thaliana). Briefly: other fluorescence titration.

On to “RAP2.12_(2-15) peptide substrate (from UniProt Q9SSA8 2-15)”, for which the values for the catalytic constant (kcat) of RAP2.12 (2-15) oxidation in assay [1] and in assay [2] were 0.5 s⁻¹ and 0.0167 s⁻¹, respectively. Moreover, the figures for the Michaelis-Menten constant (KM) for RAP2.12 (2-15) in the activity assay in assay [3] and in assay [4] were 99 µM and 97 µM, respectively. The Kd in assay [5] is 0.25 mM; in assay [6], 0.15 mM; in assay [7], 3.5 mM; in assay [8] it was 3 mM.
